Where no end group is shown, it is not given here.
Columns and labels:
[1] = biological target: T1, biotinylated Aβ1-40 peptide (biotinylated (N-biotinylated in Example 7)); assay: SPR, Fab over biotinylated peptide on streptavidin chip
T1 construct: captured on streptavidin (SA) chip; also called Biotinylated Aβ peptide 1-40; Aβ1-40 on SA chip

[2] = biological target: T2, biotinylated Aβ22-37 peptide (also: biotinylated, site not given here); assay: as above
T2 peptide: EDVGSNKGAIIGLMVG

[3] = biological target: T3, biotinylated Aβ1-42 peptide (biotinylated (N-biotinylated in Example 7)); assay: as above
T3 construct: captured on streptavidin chip; also called N-biotinylated Aβ1-42
T3 sequence (peptide, as listed by the source): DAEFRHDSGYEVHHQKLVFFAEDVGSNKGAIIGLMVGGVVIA

Aβ1-42 peptide = biological target: T4, Aβ1-42 peptide; assay: ELISA, nonbiotinylated peptide on plate
T4 construct: also called 1-42 (WT)
Method: (§1) ELISA was used for measuring binding of antibody 6G and variants to nonbiotinylated Aβ peptides. NUNC maxisorp plates were coated with 2.5 ug/ml of Aβ peptides in PBS pH 7.4 for more than 1 hour at 4° C. Plates were blocked with 1% BSA in PBS buffer pH 7.4. Primary antibody (from cell supernatants, serum containing anti-Aβ antibody, or purified full antibody or Fabs at desired dilution) was incubated with the immobilized Aβ peptides for 1 h at room temperature. After washing, the plates were incubated with secondary antibody, a HRP conjugated goat anti-human kappa chain antibody (MP Biomedicals, 55233) at 1:5000 dilution. After washing, bound secondary antibody was measured by adding TMB substrate (KPL, 50-76-02, 50-65-02). The HRP reaction was stopped by adding 1M phosphoric acid and absorbance at 450 nm was measured.
(§2) All amino acid substitutions of the variants shown in Table 8 are described relative to the sequence of 6G. Binding was determined by ELISA described above with nonbiotinylated Aβ₁₋₄₀ or Aβ₁₋₄₂ immobilized on the surface of an ELISA plate.

Aβ1-40 peptide [4] = biological target: T5, Aβ1-40 peptide; assay: ELISA, nonbiotinylated peptide on plate
T5 construct: synthetic peptide, not biotinylated; also called 1-40 (WT); beta amyloid 1-40
T5 sequence (peptide, as listed by the source): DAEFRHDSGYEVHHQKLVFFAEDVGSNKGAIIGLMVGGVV
Method: as §1, §2

Aβ1-40 peptide [5] = biological target: T5, Aβ1-40 peptide; assay: SPR, mAb on CM5 chip, peptide flowed
Method: Affinities of 9TL monoclonal antibody were determined using the BIAcore3000™ surface plasmon resonance (SPR) system (BIAcore, INC, Piscaway N.J.). […] CM5 chips were activated with N-ethyl-N′-(3-dimethylaminopropyl)-carbodiimide hydrochloride (EDC) and N-hydroxysuccinimide (NHS) according to the supplier's instructions. Antibody 9TL or its variants was diluted into 10 mM sodium acetate pH 4.0 or 5.0 and injected over the activated chip at a concentration of 0.005 mg/mL. Using variable flow time across the individual chip channels, a range of antibody density was achieved: 1000-2000 or 2000-3000 response units (RU). The chip was blocked with ethanolamine. […] HBS-EP buffer (0.01M HEPES, pH 7.4, 0.15 M NaCl, 3 mM EDTA, 0.005% Surfactant P20) was used as running buffer for all the BIAcore assays. […] Kinetic association rates (kₒₙ) and dissociation rates (koff) were obtained simultaneously by fitting the data to a 1:1 Langmuir binding model (Karlsson, R. Roos, H. Fagerstam, L. Petersson, B. (1994). Methods Enzymology 6. 99-110) using the BIAevaluation program. Equilibrium dissociation constant (KD) values were calculated as koff/kₒₙ.

| Binder | A450 ELISA (Aβ1-42 peptide) [A450] | A450 ELISA (Aβ1-40 peptide [4]) [A450] | also measured |
| --- | --- | --- | --- |
| 6G Fab fragment (Fab, V domains shown, Fab from E. coli with human IgG2 CH1 (P01859) and human kappa constant domain (CAA09181)) VH: QVQLVQSGAEVKKPGASVKVSCKASGYTFTTYAIHWVRQAPGQGLEWMGFTSPYSGVSNYNQKFKGRVTMTRDTSTSTVYMELSSLRSEDTAVYYCARFDNYDRGYVRDYWGQGTLVTVS VL: DIVMTQSPDSLAVSLGERATINCRASESVDNDRISFLNWYQQKPGQPPKLLIYAATKQGTGVPDRFSGSGSGTDFTLTISSLQAEDVAVYYCQQSKEFPWSFGGGTKVEIKR | – | – | Kd [1]: 2 nM; koff [1]: 0.0007 s⁻¹; kon [1]: 300000 M⁻¹ s⁻¹; Kd [2]: 11 nM; koff [2]: 0.0039 s⁻¹; kon [2]: 360000 M⁻¹ s⁻¹; Kd [3]: 80 nM; koff [3]: 0.0016 s⁻¹; kon [3]: 18000 M⁻¹ s⁻¹ |
| 6G light chain variant 8G (E97V) (antibody, V domains shown) VH: QVQLVQSGAEVKKPGASVKVSCKASGYTFTTYAIHWVRQAPGQGLEWMGFTSPYSGVSNYNQKFKGRVTMTRDTSTSTVYMELSSLRSEDTAVYYCARFDNYDRGYVRDYWGQGTLVTVS VL: DIVMTQSPDSLAVSLGERATINCRASESVDNDRISFLNWYQQKPGQPPKLLIYAATKQGTGVPDRFSGSGSGTDFTLTISSLQAEDVAVYYCQQSKVFPWSFGGGTKVEIKR | 0.9 | 2.6 | – |
| 6G light chain variant 6D (E97T) (antibody, V domains shown) VH: QVQLVQSGAEVKKPGASVKVSCKASGYTFTTYAIHWVRQAPGQGLEWMGFTSPYSGVSNYNQKFKGRVTMTRDTSTSTVYMELSSLRSEDTAVYYCARFDNYDRGYVRDYWGQGTLVTVS VL: DIVMTQSPDSLAVSLGERATINCRASESVDNDRISFLNWYQQKPGQPPKLLIYAATKQGTGVPDRFSGSGSGTDFTLTISSLQAEDVAVYYCQQSKTFPWSFGGGTKVEIKR | 1.34 | 2.41 | – |
| 6G light chain variant 5H (E97R) (antibody, V domains shown) VH: QVQLVQSGAEVKKPGASVKVSCKASGYTFTTYAIHWVRQAPGQGLEWMGFTSPYSGVSNYNQKFKGRVTMTRDTSTSTVYMELSSLRSEDTAVYYCARFDNYDRGYVRDYWGQGTLVTVS VL: DIVMTQSPDSLAVSLGERATINCRASESVDNDRISFLNWYQQKPGQPPKLLIYAATKQGTGVPDRFSGSGSGTDFTLTISSLQAEDVAVYYCQQSKRFPWSFGGGTKVEIKR | 0.85 | 2.6 | – |
| 6G light chain variant 6C (E97G) (antibody, V domains shown) VH: QVQLVQSGAEVKKPGASVKVSCKASGYTFTTYAIHWVRQAPGQGLEWMGFTSPYSGVSNYNQKFKGRVTMTRDTSTSTVYMELSSLRSEDTAVYYCARFDNYDRGYVRDYWGQGTLVTVS VL: DIVMTQSPDSLAVSLGERATINCRASESVDNDRISFLNWYQQKPGQPPKLLIYAATKQGTGVPDRFSGSGSGTDFTLTISSLQAEDVAVYYCQQSKGFPWSFGGGTKVEIKR | 0.05 | 0.05 | – |
| 6G light chain variant 3A (Q93P) (antibody, V domains shown) VH: QVQLVQSGAEVKKPGASVKVSCKASGYTFTTYAIHWVRQAPGQGLEWMGFTSPYSGVSNYNQKFKGRVTMTRDTSTSTVYMELSSLRSEDTAVYYCARFDNYDRGYVRDYWGQGTLVTVS VL: DIVMTQSPDSLAVSLGERATINCRASESVDNDRISFLNWYQQKPGQPPKLLIYAATKQGTGVPDRFSGSGSGTDFTLTISSLQAEDVAVYYCPQSKEFPWSFGGGTKVEIKR | 0.13 | 0.08 | – |
| 6G heavy chain variant 11D (Y102M) (antibody, V domains shown) VH: QVQLVQSGAEVKKPGASVKVSCKASGYTFTTYAIHWVRQAPGQGLEWMGFTSPYSGVSNYNQKFKGRVTMTRDTSTSTVYMELSSLRSEDTAVYYCARFDNMDRGYVRDYWGQGTLVTVS VL: DIVMTQSPDSLAVSLGERATINCRASESVDNDRISFLNWYQQKPGQPPKLLIYAATKQGTGVPDRFSGSGSGTDFTLTISSLQAEDVAVYYCQQSKEFPWSFGGGTKVEIKR | 0.24 | 0.29 | – |
| 6G light chain variant 2H (Q93K) (antibody, V domains shown) VH: QVQLVQSGAEVKKPGASVKVSCKASGYTFTTYAIHWVRQAPGQGLEWMGFTSPYSGVSNYNQKFKGRVTMTRDTSTSTVYMELSSLRSEDTAVYYCARFDNYDRGYVRDYWGQGTLVTVS VL: DIVMTQSPDSLAVSLGERATINCRASESVDNDRISFLNWYQQKPGQPPKLLIYAATKQGTGVPDRFSGSGSGTDFTLTISSLQAEDVAVYYCKQSKEFPWSFGGGTKVEIKR | 0.13 | 0.07 | – |
| antibody 9TL (full monoclonal antibody) (antibody, human IgG2, kappa, V domains shown, human IgG2a constant region with A330P331 to S330S331; human kappa light chain; also called 9TL mAb) VH: QVQLVQSGAEVKKPGASVKVSCKASGYYTEAYYIHWVRQAPGQGLEWMGRIDPATGNTKYAPRLQDRVTMTRDTSTSTVYMELSSLRSEDTAVYYCASLYSLPVYWGQGTTVTVSS VL: DVVMTQSPLSLPVTLGQPASISCKSSQSLLYSDAKTYLNWFQQRPGQSPRRLIYQISRLDPGVPDRFSGSGSGTDFTLKISRVEAEDVGVYYCLQGTHYPVLFGQGTRLEIKR | – | – | Kd (Aβ1-40 peptide [5]): 0.9 nM; koff (Aβ1-40 peptide [5]): 0.000389 s⁻¹; kon (Aβ1-40 peptide [5]): 425000 M⁻¹ s⁻¹ |

— patent US20090022728A1 (RINAT NEUROSCIENCE, published 2009)
